We go through 97 variants from the supplement of paper PMC10567573.

B1: APBB1IP (parent)
chain: SQVSMWDQRWQDHQPLLPITDVP
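Note: lentivirally expressed fusions sorted by FACS into six bins by GFP to DsRed ratio, PSI derived from sequencing read proportions per bin multiplied by bin number.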

Variants of B1 are the subject of this series. Put plainly: protein stability index of a GFP-peptide fusion (GPS, HEK-293T) (PSI 1-6); higher = more stable. The following applies: c terminus: native.
Regarding SQVSTWDQRWQDHQPLLPITDVP, the protein stability index stood at 2.73.

Regarding SQVSLWDQRWQDHQPLLPITDVP, the protein stability index is 2.77.

Regarding SQVSMWDSRWQDHQPLLPITDVP, the protein stability index was 2.28.

As to SQVSMWDPRWQDHQPLLPITDVP, the protein stability index came out at 2.13.

Regarding SQVSMWDARWQDHQPLLPITDVP, the protein stability index was found to be 2.03.

Consider SQVSMWDTRWQDHQPLLPITDVP, for which the protein stability index stood at 2.09.

As for SQVSMWDFRWQDHQPLLPITDVP, the protein stability index came out at 1.73.

SQVSMWDIRWQDHQPLLPITDVP: the protein stability index stood at 1.94.

As for SQVSMWDNRWQDHQPLLPITDVP, the protein stability index stood at 2.68.

With SQVSMWDHRWQDHQPLLPITDVP, the protein stability index stood at 2.16.

In the case of SQVSMWDLRWQDHQPLLPITDVP, the protein stability index was 1.86.

On to SQVSMWDWRWQDHQPLLPITDVP, for which the protein stability index amounted to 3.03.

SQVSMWDQRWQDRQPLLPITDVP: the protein stability index was 2.58.

SQVSMWDQRWQDIQPLLPITDVP: the protein stability index stood at 2.3.

For the variant SQVSMWDQRWQDDQPLLPITDVP, the protein stability index was found to be 3.17.

Consider SQVSMWDQRWQDSQPLLPITDVP, for which the protein stability index is 2.94.

Turning to SQVSMWDQRWQDAQPLLPITDVP, the protein stability index was 3.06.

On to SQVSMWDQRWQDFQPLLPITDVP, for which the protein stability index was 1.88.

For the variant SQVSMWDQRWQDMQPLLPITDVP, the protein stability index worked out at 1.99.

As for SQVSMWDQRWQDHQNLLPITDVP, the protein stability index was 2.77.

For SQVSMWDQRWQDHQVLLPITDVP, the protein stability index was 1.55.

SQVSMWDQRWQDHQGLLPITDVP: the protein stability index was found to be 3.45.

Consider SQVSMWDQRWQDHQFLLPITDVP, for which the protein stability index stood at 2.2.

As for SQVSMWDQRWQDHQTLLPITDVP, the protein stability index turned out to be 1.93.

On to SQVSMWDQHWQDHQPLLPITDVP, for which the protein stability index worked out at 3.7.

Regarding SQVSMWDQPWQDHQPLLPITDVP, the protein stability index worked out at 3.64.

In the case of SQVSMWDQCWQDHQPLLPITDVP, the protein stability index worked out at 2.26.

SQVSMWDQEWQDHQPLLPITDVP: the protein stability index was 3.54.

In the case of SQVSMWDQSWQDHQPLLPITDVP, the protein stability index worked out at 2.4.

As to SQVSMWDQLWQDHQPLLPITDVP, the protein stability index came out at 2.61.

For the variant SQVSMWDQGWQDHQPLLPITDVP, the protein stability index is 2.89.

As for SQVSMWDQVWQDHQPLLPITDVP, the protein stability index amounted to 2.38.

Turning to SQVSMWDQRWQDHQPLLPITMVP, the protein stability index is 1.62.

For the variant SQVSMWDQRWQDHQPLLPITCVP, the protein stability index turned out to be 5.18.

For the variant SQVSMWDQRWQDHQPLLPITNVP, the protein stability index came to 1.7.

Turning to SQVSMWDQRWQDHQPLLPITAVP, the protein stability index is 2.56.

Regarding SQVSMWDQRWQDHQPLLPITSVP, the protein stability index was determined as 1.6.

In the case of SQVSMWDQRWQDHQPLLPITYVP, the protein stability index turned out to be 1.65.

For the variant SQVSMWDQRWQDHQPLLPITGVP, the protein stability index turned out to be 1.94.

With SQVSMWDQRWQDHQPLLPITTVP, the protein stability index was 2.88.

Turning to SQVSMWDQRWQDHQPLLPITPVP, the protein stability index was 2.07.

Regarding SQVWMWDQRWQDHQPLLPITDVP, the protein stability index is 2.01.

Consider SQVYMWDQRWQDHQPLLPITDVP, for which the protein stability index worked out at 2.42.

Regarding SQVTMWDQRWQDHQPLLPITDVP, the protein stability index stood at 2.23.

As to SQVKMWDQRWQDHQPLLPITDVP, the protein stability index turned out to be 2.15.

SQVVMWDQRWQDHQPLLPITDVP: the protein stability index is 2.49.

As to SQVHMWDQRWQDHQPLLPITDVP, the protein stability index worked out at 1.74.

Regarding SQVFMWDQRWQDHQPLLPITDVP, the protein stability index was determined as 1.98.

In the case of SQVMMWDQRWQDHQPLLPITDVP, the protein stability index stood at 2.57.

Turning to SQVSMWDQRSQDHQPLLPITDVP, the protein stability index amounted to 3.37.

Take SQVSMWDQRDQDHQPLLPITDVP: the protein stability index was 3.44.

Consider SQVSMWDQRVQDHQPLLPITDVP, for which the protein stability index was 2.17.

As to SQVSMWDQRHQDHQPLLPITDVP, the protein stability index worked out at 3.14.

Regarding SQVSMWDQRCQDHQPLLPITDVP, the protein stability index was 3.12.

With SQVSMWDQRQQDHQPLLPITDVP, the protein stability index was 3.29.

As to SQVSMWDQRFQDHQPLLPITDVP, the protein stability index amounted to 2.31.

Turning to SQVSMWDQRWADHQPLLPITDVP, the protein stability index worked out at 1.84.

With SQVSMWDQRWRDHQPLLPITDVP, the protein stability index turned out to be 3.7.

Consider SQVSMWDQRWEDHQPLLPITDVP, for which the protein stability index is 3.38.

As to SQVSMWDQRWDDHQPLLPITDVP, the protein stability index worked out at 2.38.

Regarding SQVSMWDQRWKDHQPLLPITDVP, the protein stability index was found to be 2.87.

SQVSMWDQRWGDHQPLLPITDVP: the protein stability index was 1.77.

Turning to SQVSMWDQRWCDHQPLLPITDVP, the protein stability index turned out to be 1.92.

As for SQVSMWDQRWNDHQPLLPITDVP, the protein stability index turned out to be 2.74.

In the case of SQVSMWDQRWQDHQPLLRITDVP, the protein stability index was 2.29.

For SQVSMWDQRWQDHQPLLHITDVP, the protein stability index is 2.38.

As for SQVSMWDQRWQDHQPLLEITDVP, the protein stability index stood at 2.55.

Consider SQVSMWDQRWQDHQPLLTITDVP, for which the protein stability index is 1.31.

Regarding SQVSMWDQRWQDHQPLLKITDVP, the protein stability index stood at 2.1.

For SQVSMWDQRWQDHQPLLMITDVP, the protein stability index was 1.71.

As to SQVSMWDQRWQDHQPLLCITDVP, the protein stability index worked out at 1.82.

In the case of STVSMWDQRWQDHQPLLPITDVP, the protein stability index amounted to 2.54.

As to SVVSMWDQRWQDHQPLLPITDVP, the protein stability index is 2.33.

As to SYVSMWDQRWQDHQPLLPITDVP, the protein stability index was 1.89.

Regarding SHVSMWDQRWQDHQPLLPITDVP, the protein stability index turned out to be 2.23.

Consider SLVSMWDQRWQDHQPLLPITDVP, for which the protein stability index came to 1.5.

For the variant SAVSMWDQRWQDHQPLLPITDVP, the protein stability index was 1.88.

As for MQVSMWDQRWQDHQPLLPITDVP, the protein stability index came to 1.96.

For the variant IQVSMWDQRWQDHQPLLPITDVP, the protein stability index came out at 1.56.

As to CQVSMWDQRWQDHQPLLPITDVP, the protein stability index was 2.69.

Turning to GQVSMWDQRWQDHQPLLPITDVP, the protein stability index was found to be 2.03.

Consider YQVSMWDQRWQDHQPLLPITDVP, for which the protein stability index amounted to 4.

For the variant FQVSMWDQRWQDHQPLLPITDVP, the protein stability index came out at 1.92.

On to NQVSMWDQRWQDHQPLLPITDVP, for which the protein stability index came out at 2.19.

Turning to RQVSMWDQRWQDHQPLLPITDVP, the protein stability index was 2.23.

For TQVSMWDQRWQDHQPLLPITDVP, the protein stability index came to 2.04.

As for SQVSMWDQRWQDHQPLLPCTDVP, the protein stability index stood at 2.15.

With SQVSMWDQRWQDHQPLLPDTDVP, the protein stability index is 4.17.

In the case of SQVSMWDQRWQDHQPLLPTTDVP, the protein stability index stood at 3.03.

With SQVSMWDQRWQDHQPLLPQTDVP, the protein stability index stood at 2.87.

With SQVSMWDQRWQDHQPLLPLTDVP, the protein stability index is 2.03.

Turning to SQVSMWDQRWQDHQPLLPETDVP, the protein stability index worked out at 3.36.

For SQVSMWDQRWQDHQPLLPNTDVP, the protein stability index is 3.55.

On to SQVSMWDQRWQDHQPLLPGTDVP, for which the protein stability index came to 3.67.

Take SQVSMWDQRWQDHQPLLPYTDVP: the protein stability index is 2.84.

On to SQVSMWDQRWQDHQPLLPSTDVP, for which the protein stability index turned out to be 3.

Consider SQVSMWDQRWQDHQPLLPATDVP, for which the protein stability index was found to be 2.67.
